Data reported in US20170058042A1 (Genentech, published 2017).

Experiments:
[1] = molecular target: T1, human Ly6E (native, in human tumor cells, xenograft tumors and human tissues) (human, UniProt Q16553 21-101); assay: cell-based or functional assay
T1 sequence: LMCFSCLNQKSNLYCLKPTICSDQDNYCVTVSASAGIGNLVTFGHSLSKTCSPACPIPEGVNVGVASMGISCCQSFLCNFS

[2] = molecular target: T2, cynomolgus monkey Ly6E (native, in cynomolgus monkey tissues) (cynomolgus monkey, UniProt Q16553 21-101 (human entry)); assay: IHC on normal cynomolgus monkey tissues
T2 construct: Endogenous protein in normal cynomolgus monkey tissue sections (IHC); also called cyno Ly6E
T2 chain: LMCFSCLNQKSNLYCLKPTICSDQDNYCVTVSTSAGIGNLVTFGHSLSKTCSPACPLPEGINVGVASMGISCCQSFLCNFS

B1: humanized anti-Ly6E (hu9B12 v12) ADC (MC-vc-PAB-MMAE) (antibody, V domains shown)
VH: EVQLVESGPALVKPTQTLTLTCTVSGFSLTGYSVNWIRQPPGKALEWLGMIWGDGSTDYNSALKSRLTISKDTSKNQVVLTMTNMDPVDTATYYCARDYYFNYASWFAYWGQGTLVTVSS
VL: DIQMTQSPSSLSASVGDRVTITCSASQGISNYLNWYQQKPGKTVKLLIYYTSNLHSGVPSRFSGSGSGTDYTLTISSLQPEDFATYYCQQYSELPWTFGQGTKVEIK
In the case of B1, the “EC50 (cell killing, CellTiter-Glo, HCC1569 X2 cells, 5 days)” value [1] is reported as 4 nM.

B2: rabbit anti-Ly6E antibody clone GEN-93-8-1 (antibody, V domains shown)
VH: QSVEESGGRLVTPGTPLTLTCATSGFSLSIYDMTWVRQAPGKGLEWIGVIYTSGGAYYANWAKGRFTISRTSTTVDLRMTSPTTEDTATYFCVRNWAHGSDLWGQGTLVTVSS
VL: DPVVTQTPSSASAAVGGTVSISCQSSQSVYNNNYLGWYQQKPGQPPKLLIYDASKLASGVPSRFKASGSGTQFALTISDLECDDAATYYCVGGYPGSLNVFGGGTEVVVK
notes: Rabbit monoclonal IgG; also called antibody GEN-93-8-1
B2: binds [2].
